System: CFTR W1282X
Test: CFTR W1282X rescue, western blot of B and C bands, HEK cells
Assay type: cell-based, human
Details: co-expression with CFTR W1282X cDNA in HEK cells
Protocol: To assess is these novel tRNA could rescue CFTR channels harboring nonsense codons, they were co-expressed in mammalian HEK cells with a CFTR W1282X cDNA plasmid. The cellular preparations were analyzed by standard biochemical approaches via Western blot assessment of CFTR protein. […] Specifically, the “B” and “C” bands represent the full-length and fully mature, post-translationally proceeded CFTR protein at the cell surface, respectively. […] FIG. 9.
For expression in mammalian cells, the cDNA for the coding region and 200 base-pair of the 3′ untranslated region (UTR) of human CFTR was ligated into pcDNA3.1(+) (Promega, USA) using the KpnI and XbaI restriction enzymes. The G542tga and W1282tga mutations were introduced using QuickChange XL II (Stratagene, USA). For expression in Xenopus laevis oocytes, the cDNA for the coding region and 140 base-pair of the 5′ and 244 base-pair 3′ UTR of human CFTR was ligated into pGEM-HE (Promega, USA). Bothe the G542tga and W1282tga mutations were introduced using QuickChange XL II. The cDNA encoding the E. coli histidinol dehydrogenase was codon optimized for Mus musculus and synthesized (BioBasic Inc, Canada) with a c-terminal 8×His-Strep-tag (“8×His” disclosed as SEQ ID NO: 647) for protein purification from mammalian cells. The synthesized cDNA was ligated into pcDNA3.1(+) using EcoRI and XhoI restriction sites. […]

B1: Glychr19.trna2: top performing glycine ACE-tRNA UGA, SEQ ID NO: 53 (nucleic acid)
chain: GCGUUGGUGGUAUAGUGGUUAGCAUAGCUGCCUUCAAAGCAGUUGACCCGGGUUCGAUUCCCGGCCAACGCA
modifications: chemistry not given here
  rescue of CFTR protein, B and C bands: robust populations of ‘B’ and ‘C’ CFTR immunopositive

From patent publication US12559749B2, “Methods of rescuing stop codons via genetic reassignment with ACE-tRNA” (UNIVERSITY OF IOWA RESEARCH FOUNDATION, priority 2017, dated 2026)
